Results reported in article PMC3207831, “Determinants of the Differential Antizyme-Binding Affinity of Ornithine Decarboxylase” (PLoS ONE, 2011).
Each block holds one molecule with its values, some of them ahead of it.

Key:
[1] = molecular target: ODC_7M (ODC_Q119H/A124R/N125D/Q129D/E136V/V137D/M140E) (human) (UniProt P11926)
[2] = molecular target: human ornithine decarboxylase, wild type (human) (UniProt P11926)
[3] = molecular target: ODC_7M (ODC_Q119H/A124R/N125D/Q129D/E136V/V137D/M140E) (human) (UniProt P11926); assay: AUC; sedimentation velocity, 20°C, 42,000 rpm, absorbance at 280 nm; ODC fixed at 0.3 mg/mL, AZ 0.03, 0.06 or 0.09 mg/mL; global fit to the AB hetero-association model (SEDPHAT)
[4] = molecular target: ODC_7M(-Q119H) (ODC_A124R/N125D/Q129D/E136V/V137D/M140E) (human) (UniProt P11926); assay: as above
[5] = molecular target: ODC_7M(-V137D) (human) (UniProt P11926); assay: as above
[6] = molecular target: ODC_Q119H/V137D/M140E (human) (UniProt P11926); assay: as above
[7] = molecular target: human ornithine decarboxylase, wild type (human) (UniProt P11926); assay: as above
[8] = molecular target: the molecule itself; assay: AUC; sedimentation velocity, 20°C, 42,000 rpm, continuous size distribution (SEDFIT); ODC in the absence of AZ

- ODC enzyme activity left with increasing AZ (ODC 20 μg/mL, AZ 0 to 28 μg/mL); value at a molar ratio of 1:1 AZ:ODC [1]: 90%
- ODC enzyme activity left with increasing AZ (ODC 20 μg/mL, AZ 0 to 28 μg/mL); value at a molar ratio of 2:1 monomeric AZ to dimeric ODC [2]: 30%
- Kd [3]: 12400 nM
- Kd [4]: 1420 nM
- Kd [5]: 1200 nM
- Kd [6]: 9950 nM
- Kd [7]: 220 nM
Molecule: antizyme (from UniProt P54368 1-228) (natural protein)

B1: human ornithine decarboxylase, wild type (enzyme, UniProt P11926 1-461, looked up)
chain: MNNFGNEEFDCHFLDEGFTAKDILDQKINEVSSSDDKDAFYVADLGDILKKHLRWLKALPRVTPFYAVKCNDSKAIVKTLAATGTGFDCASKTEIQLVQSLGVPPERIIYANPCKQVSQIKYAANNGVQMMTFDSEVELMKVARAHPKAKLVLRIATDDSKAVCRLSVKFGATLRTSRLLLERAKELNIDVVGVSFHVGSGCTDPETFVQAISDARCVFDMGAEVGFSMYLLDIGGGFPGSEDVKLKFEEITGVINPALDKYFPSDSGVRIIAEPGRYYVASAFTLAVNIIAKKIVLKEQTGSDDEDESSEQTFMYYVNDGVYGSFNCILYDHAHVKPLLQKRPKPDEKYYSSSIWGPTCDGLDRIVERCDLPEMHVGDWMLFENMGAYTVAAASTFNGFQRPTIYYVMSGPAWQLMQQFQNPDFPPEVEEQDASTLPVSCAWESGMKRHRAACASASINV
notes: human ornithine decarboxylase (ODC, EC 4.1.1.17); Homodimer in the absence of AZ by sedimentation velocity; also called hODC; source: E. coli JM109 (pQE30), purified (Ni-NTA)
- stoichiometry N [8]: 2
